18 variants from FireProtDB (doi:10.1002/pro.2449) can be followed below.

B1: Guanyl-specific ribonuclease Sa, P05798 (parent)
chain: DVSGTVCLSALPPEATDTLNLIASDGPFPYSQDGVVFQNRESVLPTQSYGYYHEYTVITPGARTRGTRRIITGEATQEDYYTGDHYATFSLIDQTC
B2: Guanyl-specific ribonuclease T1, P00651 (parent)
chain: MMYSKLLTLTTLLLPTALALPSLVERACDYTCGSNCYSSSDVSTAQAAGYQLHEDGETVGSNSYPHKYNNYEGFDFSVSSPYYEWPILSSGDVYSGGSPGADRVVFNENNQLAGVITHTGASGNNFVECT

Data set [1] covers variants of B1. The settings on record: Kitasatospora aureofaciens; pH 7; Thermal; DSC; MOPS; transition: 2; reversible: yes; structure 1RGG; whole UniProt chain shown.
Variants of B2 are the subject of data set [2]. Particulars: Aspergillus oryzae (strain ATCC 42149 / RIB 40), pH 7, MOPS, transition: 2, reversible: yes, structure 1YGW, whole UniProt chain shown; for denaturant m value / denaturant midpoint (higher = more stable) / unfolding free energy: 25 °C, Urea; for Tm / change of melting temperature, mutant - wild type (higher = more stable) / ddG of mutation (higher = less stable) / unfolding enthalpy (calorimetric): Thermal, DSC.

Broadly, the Tm is the temperature at which the thermal transition is half complete.

For the variant DVSGTVCLSALPPEATDTLNLIAADGPFPYSQDGVVFQNRESVLPTQSYGYYHEYTVITPGARTRGTRRIITGEATQEDYYTGDHYATFSLIDQTC [S24A], in data set [1], the “change of melting temperature, mutant - wild type (higher = more stable)” value (“change of melting temperature, mutant” for short) was -0.7 °C; the “ddG of mutation (higher = less stable)” value was 0.2 kcal/mol; the “unfolding enthalpy (calorimetric)” value turned out to be 77 kcal/mol.
Taken in the same sequence, the figures for DVSGTVCLSALPPEATDTLNLIASDGPFPYSQDGVVFQNRESVLPTQAYGYYHEYTVITPGARTRGTRRIITGEATQEDYYTGDHYATFSLIDQTC [S48A] were 1.7 °C, -0.5 kcal/mol and 92 kcal/mol.
Taken in the same sequence, the figures for DVSGTVCLSALPPEATDTLNLIASDGPFPYSQDGVVFQNRESVLPTQSYGYYHEYTVITPGARTRGTRRIITGEATQEDYYTGDHYATFALIDQTC [S90A] were 0.7 °C, -0.2 kcal/mol and 86 kcal/mol.
Taken in the same sequence, the figures for DVSGTVCLSALPPEATDTLNLIASDGPFPYAQDGVVFQNRESVLPTQSYGYYHEYTVITPGARTRGTRRIITGEATQEDYYTGDHYATFSLIDQTC [S31A] were 1.5 °C, -0.4 kcal/mol and 91 kcal/mol.
DVSGTVCLSALPPEATDTLNLIASDGPFPYSQDGVVFQARESVLPTQSYGYYHEYTVITPGARTRGTRRIITGEATQEDYYTGDHYATFSLIDQTC [N39A]: in data set [1], the “change of melting temperature, mutant” value is -7.3 °C; the “ddG of mutation (higher = less stable)” value came to 2 kcal/mol; the “unfolding enthalpy (calorimetric)” value stood at 66 kcal/mol.
In the case of DVSGTVCLSALPPEATDTLNLIASDGPFPYSQDGVVFQNRESVLPTQSYGYYHEYTVITPGARTRGTRRIITGEATQEDYYTGDHYATFSLIDQAC [T95A], in data set [1], the “change of melting temperature, mutant” value was -2.1 °C; the “ddG of mutation (higher = less stable)” value is 0.6 kcal/mol; the “unfolding enthalpy (calorimetric)” value came to 97 kcal/mol.
For DVSGTVCLAALPPEATDTLNLIASDGPFPYSQDGVVFQNRESVLPTQSYGYYHEYTVITPGARTRGTRRIITGEATQEDYYTGDHYATFSLIDQTC [S9A], in data set [1], the “change of melting temperature, mutant” value was -4.5 °C; the “ddG of mutation (higher = less stable)” value came to 1.3 kcal/mol; the “unfolding enthalpy (calorimetric)” value was 91 kcal/mol.
Taken in the same sequence, the figures for DVSGTVCLSALPPEATDTLNLIASDGPFPYSQDGVVFQNREAVLPTQSYGYYHEYTVITPGARTRGTRRIITGEATQEDYYTGDHYATFSLIDQTC [S42A] were 0.4 °C, -0.1 kcal/mol and 92 kcal/mol.
Taken in the same sequence, the figures for DVSGTVCLSALPPEATDTLALIASDGPFPYSQDGVVFQNRESVLPTQSYGYYHEYTVITPGARTRGTRRIITGEATQEDYYTGDHYATFSLIDQTC [N20A] were -0.1 °C, 0 kcal/mol and 89 kcal/mol.
For the variant DVAGTVCLSALPPEATDTLNLIASDGPFPYSQDGVVFQNRESVLPTQSYGYYHEYTVITPGARTRGTRRIITGEATQEDYYTGDHYATFSLIDQTC [S3A], in data set [1], the “change of melting temperature, mutant” value is -1.1 °C; the “ddG of mutation (higher = less stable)” value came out at 0.3 kcal/mol; the “unfolding enthalpy (calorimetric)” value was 86 kcal/mol.
Turning to MMYSKLLTLTTLLLPTALALPSLVERACDYTCGSNCYSSSDVSTAQAAGYQLHEDGETVGSNSYPHKYNNYEGFDFSVSSPYYEWPILSSGDVYSGGSPGADRVVFNENNQLAGVIVHTGASGNNFVECT [T117V], in data set [2], the denaturant m value was found to be 1.24 kcal/mol/M, the “denaturant midpoint (higher = more stable)” value (“denaturant midpoint” below) is 2.07 M, the unfolding free energy was 2.6 kcal/mol and the Tm came to 40.7 °C. Besides, in data set [2], the “change of melting temperature, mutant” value is -11.8 °C; the “ddG of mutation (higher = less stable)” value was found to be 3.6 kcal/mol; the “unfolding enthalpy (calorimetric)” value came out at 95 kcal/mol.
Turning to MMYSKLLTLTTLLLPTALALPSLVERACDYTCGSNCYSSSDVSTAQAAGYQLHEDGETVGSNSYPHKYNNYEGFDFSVSSPYYEWPILSSGDVYSGGSPGADRVVFNENNQLAGVIAHTGASGNNFVECT [T117A], in data set [2], the denaturant m value was found to be 1.25 kcal/mol/M, the “denaturant midpoint” value amounted to 2.32 M, the unfolding free energy is 2.9 kcal/mol and the Tm is 41.9 °C. In addition, in data set [2], the “change of melting temperature, mutant” value was -10.6 °C; the “ddG of mutation (higher = less stable)” value came out at 3.2 kcal/mol; the “unfolding enthalpy (calorimetric)” value was 98 kcal/mol.
Take MMYSKLLTLTTLLLPTALALPSLVERACDYTCGSNCYSSSDVSTAQAAGYQLHEDGETVGSNSYPHKYNNYEGFDFSVSSPYYEWPILSSGDVYSGGSPGADRVVFNENNQLAGVITHAGASGNNFVECT [T119A]: in data set [2], the denaturant m value is 0.91 kcal/mol/M, the “denaturant midpoint” value stood at 4.46 M, the unfolding free energy was 4.1 kcal/mol and the Tm was 50.2 °C. Besides, in data set [2], the “change of melting temperature, mutant” value is -2.3 °C; the “ddG of mutation (higher = less stable)” value is 0.7 kcal/mol; the “unfolding enthalpy (calorimetric)” value is 104 kcal/mol.
Take MMYSKLLTLTTLLLPTALALPSLVERACDYTCGSNCYSSSDVSTAQAAGYQLHEDGETVGSNSYPHKYNNYEGFDFSVSSPYYEWPILSSGDVYSGGSPGADRVVFNENNQLAGVITHVGASGNNFVECT [T119V]: in data set [2], the denaturant m value stood at 1.2 kcal/mol/M, the “denaturant midpoint” value stood at 4.16 M, the unfolding free energy turned out to be 5 kcal/mol and the Tm amounted to 49.3 °C. Besides, in data set [2], the “change of melting temperature, mutant” value was -3.2 °C; the “ddG of mutation (higher = less stable)” value is 1 kcal/mol; the “unfolding enthalpy (calorimetric)” value worked out at 97 kcal/mol.
As for MMYSKLLTLTTLLLPTALALPSLVERACDYTCGSNCYSSSDVSTAQAAGYQLHEDGETVGSNSYPHKYNNYEGFDFSVSSPYYEWPILSSGDVYSGGSPGADRVVFNENNQLAGVIVHAGASGNNFVECT [T117V T119A], in data set [2], the denaturant m value was determined as 1.33 kcal/mol/M, the “denaturant midpoint” value came out at 1.9 M, the unfolding free energy was 2.5 kcal/mol and the Tm was 38.5 °C. Further, in data set [2], the “change of melting temperature, mutant” value is -14 °C; the “ddG of mutation (higher = less stable)” value was 4.3 kcal/mol; the “unfolding enthalpy (calorimetric)” value worked out at 92 kcal/mol.
As to MMYSKLLTLTTLLLPTALALPSLVERACDYTCGSNCYSSSDVSTAQAAGYQLHEDGETVGSNSYPHKYNNYEGFDFSVSSPYYEWPILSSGDVYSGGSPGADRVVFNENNQLAGVIVHVGASGNNFVECT [T117V T119V], in data set [2], the denaturant m value is 1.32 kcal/mol/M, the “denaturant midpoint” value was found to be 2.19 M and the unfolding free energy is 2.9 kcal/mol.
Regarding MMYSKLLTLTTLLLPTALALPSLVERACDYTCGSNCYSSSDVSTAQAAGYQLHEDGETVGSNSYPHKYNNYEGFDFSVSSPYYEWPILSSGDVYSGGSPGADRVVFNENNQLAGVIAHAGASGNNFVECT [T117A T119A], in data set [2], the denaturant m value amounted to 1.21 kcal/mol/M, the “denaturant midpoint” value was determined as 1.9 M, the unfolding free energy was found to be 2.3 kcal/mol and the Tm was 40.5 °C. Moreover, in data set [2], the “change of melting temperature, mutant” value was -12 °C; the “ddG of mutation (higher = less stable)” value was 3.7 kcal/mol; the “unfolding enthalpy (calorimetric)” value came out at 96 kcal/mol.
Regarding MMYSKLLTLTTLLLPTALALPSLVERACDYTCGSNCYSSSDVSTAQAAGYQLHEDGETVGSNSYPHKYNNYEGFDFSVSSPYYEWPILSSGDVYSGGSPGADRVVFNENNQLAGVIAHVGASGNNFVECT [T117A T119V], in data set [2], the denaturant m value was 1.21 kcal/mol/M, the “denaturant midpoint” value was found to be 2.35 M, the unfolding free energy was determined as 2.9 kcal/mol and the midpoint of thermal melting (Tm) came out at 41.4 °C. Besides, in data set [2], the “change of melting temperature, mutant” value was -11 °C; the “ddG of mutation (higher = less stable)” value is 3.4 kcal/mol; the “unfolding enthalpy (calorimetric)” value was determined as 90 kcal/mol.
